What all share (type): binding
Assay [1] has as its target HSA (Homo sapiens, UniProt P02768). Briefly: Fluorescence emission spectrum measurement, different-color double-label anti-SA Fab complex with HSA. The note with it: antigen HSA; ratio to no antigen. An excerpt: Similarly, the different-color double-label Fab complex of the anti-SA antibody prepared in Example 1 comprising a polypeptide containing a heavy chain variable region (VH; SEQ ID NO: 12) of an anti-SA antibody labeled with a CR110, TAMRA, or ATTO 655 fluorescent dye and an antibody heavy chain constant domain (CH1; SEQ ID NO: 6), and a polypeptide containing a light chain variable region (VL; SEQ ID NO: 10) of an anti-SA antibody labeled with a dye differing from the above dye and an antibody light chain constant domain (Cκ; SEQ ID NO: 4) was reacted with antigenic HSA (0 to 100 μM), and then fluorescence intensity was measured. The ratio of the fluorescence intensity at each antigen concentration to the fluorescence intensity when no antigen was present was designated as the “fluorescence intensity ratio” and is shown in the graphs of FIG. 10. […]
Moreover, when irradiated with excitation light with a wavelength of 530 nm, fluorescence intensity ratios obtained at a fluorescence wavelength of about 530 nm in the case of CR110_TAMRA was higher than those of no_TAMRA, because of the quenching effect due to the interaction between the fluorescent dyes. […]

The nature of assay [2]: Measurement of ractopamine using fluoro-labeled Fab complex. The note with it: 3.4 μg/mL Ractopamine versus absence of antigen, Ex/Em 530/580.
Assay [3] in a line: Measurement of cannabinoid component THC using fluoro-labeled Fab complex. The settings on record: 100 μg/mL THC versus absence of antigen, Ex/Em 530/580.
Assay [4] can be described thus: Fluorescence enhancement of fluoro-labeled Fab complex with MDA. The settings on record: antigen MDA 100 μg/mL versus absence of antigen.
Assay [5] can be described thus: Fluorescence enhancement of fluoro-labeled Fab complex / scFv with morphine. The note with it: antigen Morphine 100 μg/mL versus absence of antigen.
Assay [6] is described as follows: Fluorescence enhancement of fluoro-labeled Fab complex / scFv with cocaine. The settings on record: antigen Cocaine 100 μg/mL versus absence of antigen.
A short description of assay [7]: Fluorescence enhancement of fluoro-labeled Fab complex / scFv with ketamine. The settings on record: for Fluorescence enhancement: 1.0 mg/mL Ketamine versus absence of antigen, Ex/Em 530/580.
The nature of assay [8]: Measurement of cotinine using fluoro-labeled Fab complex. The settings on record: 3.5 μg/mL Cotinine versus absence of antigen, Ex/Em 530/580.
Assay [9] can be described thus: Measurement of clenbuterol using fluoro-labeled Fab complex. The note with it: 16 μg/mL Clenbuterol versus absence of antigen; Ex/Em 480/530.

Marks after values point to notes of the source that are not given here.

B1: CR110_TAMRA: different-color double-label Fab complex of anti-SA antibody; CR110-labeled VH (SEQ ID NO: 12)+CH1, TAMRA-labeled VL (SEQ ID NO: 10)+Cκ (antibody, V domains shown)
VH: EVQLLESGGGLVQPGGSLRLSCAASGFTFSSYAMSWVRQAPGKGLEWVSHISPYGANTRYADSVKGRFTISRDNSKNTLYLQMNSLRAEDTAVYYCAKGLRAFDYWGQGTLVTVSS
VL: DIQMTQSPSSLSASVGDRVTITCRASQSISSYLNWYQQKPGKAPKLLIYRASLLQSGVPSRFSGSGSGTDFTLTISSLQPEDFATYYCQQGRDRPATFGQGTKVEIKR
modifications: CH1 and Ckappa constant domains; CR110 and TAMRA labels; anti-SA antibody VH; anti-SA antibody VL
As for B1, the maximum fluorescence enhancement in assay [1] stood at 75 fold.

B2: Anti-Ractopamine: same-color double-label Fab complex of anti-ractopamine antibody; TAMRA-labeled VL (SEQ ID NO: 17) and VH (SEQ ID NO: 18) (antibody, V domains shown)
VH: DVQLVESGPGLVKPSQSLSLTCTVTGYSITSDYAWNWIRQFPGNKLEWMGYIFYSGSTSYNPSLKSRISITRDTSKNQFFLQLNSVTTEDTATYFCARLAYYYDYDGYAMDYWGQGTSVTVSS
VL: DILMTQTPLSLPVSLGDQASISCRSSQNIVHSDGNTYLEWYLQKPGQSPKLLISKVSNRFSGVPDRFSGSGSGTDFTLKISRVEAEDLGIYYCFQGSHVPWTFGGGTKLEIKR
modifications: Fab; TAMRA labels; Ract-VH-18; Ract-VL-17
Consider B2, for which the Fluorescence enhancement in [2] is on record as 2.3*^1; in [2] (listed as anti-ractopamine), 2.3.

B3: Anti-THC: same-color double-label Fab complex of anti-THC antibody; TAMRA-labeled VL (SEQ ID NO: 29) and VH (SEQ ID NO: 30) (antibody, V domains shown)
VH: EVKLVESGGGLVKPGGSLKLSCAASGFTFNNYVMVWLRQTPEKRLEWVASISRGGSTYYPDSVKGRFTISRDNARNILYLQMSSLRSEDTAMYYCVRGTTIVAGDVWGAGTTVTVSS
VL: DIVLTQSPTTMAASPGEKITITCSASSSISSNYLHWYQQKPGFSPKLLIYRTSNLASGVPARFSGSGSGTSYSLTIGTMEAEDVATYYCQQGSSIPLTFGAGTKLELKR
modifications: Fab; TAMRA labels; THC-VH-30; THC-VL-29
On to B3, for which the Fluorescence enhancement is given as 1.3*^1 in assay [3] and 1.3 in [3] (listed as anti-THC).

B4: Anti-Cocaine: same-color double-label Fab complex of anti-cocaine antibody; TAMRA-labeled VL (SEQ ID NO: 27) and VH (SEQ ID NO: 28) (antibody, V domains shown)
VH: DVTLQESGGGLVQPGGSMKLSCAASGFTFSDAWVDWVRQSPGKGLEWVAEIRNKANNHATKYTESVKGRFTISRDDSKSSVYLQMNSLRAEDTGIYYCTSVPQLGRGFAYWGQGTLVTVSS
VL: DIVMTQAAPSVPVTPGESVSISCRSSKSLLHSNGYTYLHWFLQRPGQSPQLLIYRVSNLASGVPDRFSGSGSGTAFTLRFSRVEAEDVGVYYCMQHLEYPFTFGSGTKLEIKR
modifications: Fab; TAMRA labels; Coca-VH-28; Coca-VL-27
With B4, the “Fluorescence enhancement in the presence of 100 μg/mL antigen” value in assay [4] was found to be 0.9; in [5], 0.9; in [6] it was 3.7; in [7] (antigen Ketamine 100 μg/mL versus absence of antigen), 0.9.

B5: Anti-cotinine: same-color double-label Fab complex of anti-cotinine antibody; TAMRA-labeled VL (SEQ ID NO: 19) and VH (SEQ ID NO: 20) (antibody, V domains shown)
VH: QQQLVESGGRLVTPGGSLTLTCTASGFSLNNYWMSWVRQAPGKGLEWIGDIHGNRGFNYHASWAKGRFTVSRTSTTVDLRMTSLTTEDTAIYFCARADDSGSHDIWGPGTLVTVSS
VL: ELDLTQTPSPVSAAVGDTVTINCQSSQSVYSAKLSWYQQKPGQPPKLLIYYGSTLASGVPSRFKGSGSGTQFSLTISDVQCADAATYYCQGTYYGPDWYFAFGGGTEVVVKR
modifications: Fab; TAMRA labels; Coti-VH-20; Coti-VL-19
For the molecule B5, the Fluorescence enhancement is listed as 1.9*^2 in [8] and 1.9 in assay [8] (listed as anti-cotinine).

B6: Anti-Clenbuterol: different-color double-label Fab complex of anti-clenbuterol antibody; CR110-labeled VL (SEQ ID NO: 15)+Cκ, TAMRA-labeled VH (SEQ ID NO: 16)+CH1 (antibody, V domains shown)
VH: QVKLQESGGGLVKPRGSLKLSCAASGFTFSSYDMSWVRQTPEKRLEWVASIRSGGYYTLYPDSVKGRFTISRDNVKNTLYLQMSSLRSEDTAMYYCSRDGNDEYFDVWGAGTTVTVSS
VL: DIELTQSPAILSASPGEKVTMTCSANSSVSYMHWYQQKSRTSPKLWIYDTSKLASGVPGRFSGSGSGNSYSLTISSMEAEDVATYYCFQGSKYPFTFGSGTRLEIKR
modifications: Ckappa and CH1 without entry; CR110, TAMRA labels; Clen-VH-16; Clen-VL-15
Take B6: the Fluorescence enhancement in [9] stood at 1.5.

B7: Anti-Ketamine: same-color double-label Fab complex of anti-ketamine antibody; TAMRA-labeled VL (SEQ ID NO: 31) and VH (SEQ ID NO: 32) (antibody, V domains shown)
VH: QVQLKESGPGLVAPSQSLSITCTVSGFALTGYGVNWVRQPPGKGLEWLGMIWGDGNTDYNSALKSRLSISKDNSKSQVFLKMNSLQTDDTARYYCARGNGYFYVLDYWGQGTSVTVSS
VL: QAVVTQESALTTSPGETVTLTCRSSTGAVTTSNYANWVQEKPDHLFTGLIGGTNNRAPGVPARFSGSLIGDKAALTITGAQTEDEAIYFCSLWYSNHLVFGGGTKLTVLGQ
modifications: Fab; TAMRA labels; Keta-VH-32; Keta-VL-31
Consider B7, for which the Fluorescence enhancement is listed as 2.0*^2 in assay [7] and 2.0 in [7] (listed as anti-ketamine).

For the origin of these results see patent US20140329228A1 (Ushio Denki Kabushiki Kaisha, priority 2011, published 2014).
